{"source": "paper PMC4555872", "key": {"[1]": {"target": "BG505 SOSIP.664 gp140 trimer (cleaved) (HIV-1 (BG505))", "assay": "negative stain electron microscopy"}, "[2]": {"target": "BG505 WT.SEKS gp140 (uncleaved) (HIV-1 (BG505))", "assay": "negative stain electron microscopy"}, "[3]": {"target": "CZA97.012 gp140 (uncleaved, foldon, His-tagged) (HIV-1 (subtype C, CZA97.012) | not stated)", "assay": "SEC"}}, "data": [{"substance": "BG505 SOSIP.664 gp140 trimer (cleaved) (complex)", "values": [{"measurement": "stoichiometry N", "setting": "[1]", "value": 3}]}, {"substance": "BG505 WT.SEKS gp140 (uncleaved)", "values": [{"measurement": "stoichiometry N", "setting": "[2]", "value": 3}]}, {"substance": "CZA97.012 gp140 (uncleaved, foldon, His-tagged)", "values": [{"measurement": "stoichiometry N", "setting": "[3]", "value": 3}]}]}
